From the supplement of paper PMC6757056
± gives the standard deviation of the averaged measurements.

B1: library; a variant is named by its letters at N, in order (parent)
chain: GCUGUCACCGAGAAACUGUGAAGUAUAUCUUAAACCUGGGCACUUAAAAGAUAUAUGGAGUUAGUAGUGCAACCUGCUCGGUCUGAUGAGUCCNNNNNNGGACGAAACAGC

Assays:
cyclic di-GMP [1] = variants of: B1; test: normalized RNA/DNA level without ligand (relative to sTRSVctl = 100) (log10 (% of sTRSVctl)); HEK293T; ligand: cyclic di-GMP (c-di-GMP-II aptamer); higher = less ribozyme self-cleavage, higher mRNA level; details: reporter: mCherry (pCS4076), ligand present: no
In short: (§1)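 Ribozyme switch library plasmids with mCherry reporters (eGFP in certain ligand experiments) went into HEK293T cells at 4 µg per 6-well well. Where ligand was used, it was applied 1 h before transfection, and total RNA was extracted with EDTA 72 h later for reverse transcription, amplification, barcoding and sequencing. RNA level is the RNA-to-DNA read ratio normalized to a spiked-in non-cleaving sequence or to the leading sequences, then scaled and log-transformed. Scaling was ×100 with log10, the leading set comprised 25 sequences, and the cutoff was ≥100 DNA reads.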

cyclic di-GMP [2] = variants of: B1; test: normalized RNA/DNA level with ligand (relative to sTRSVctl = 100) (log10 (% of sTRSVctl)); HEK293T; ligand: cyclic di-GMP (c-di-GMP-II aptamer); ligand concentration (+) RNA-Seq: 1 mM; higher = less ribozyme self-cleavage, higher mRNA level; details: reporter: mCherry (pCS4076), ligand present: yes
In short: as §1

| Variant | normalized RNA/DNA level without ligand (log10) (cyclic di-GMP [1]) | normalized RNA/DNA level with ligand (log10) (cyclic di-GMP [2]) |
| --- | --- | --- |
| GUUUCC | 1.82 ± 0.07 | 1.88 ± 0.15 |
| GUUUCA | 1.648 ± 0.0058 | 1.79 ± 0.12 |
| GUUUCG | 1.71 ± 0.051 | 1.85 ± 0.099 |
| GUUUCU | 1.711 ± 0.014 | 1.86 ± 0.097 |
| CUUGUA | 1.57 ± 0.044 | 1.77 ± 0.12 |
| CUUGUU | 1.72 ± 0.07 | 1.85 ± 0.12 |
| CUUGUC | 1.78 ± 0.048 | 1.89 ± 0.12 |
| CUUGUG | 1.73 ± 0.03 | 1.91 ± 0.13 |
| AUUUUG | 1.68 ± 0.045 | 1.81 ± 0.056 |
| AUUUUU | 1.76 ± 0.03 | 1.89 ± 0.075 |
| AUUUUA | 1.62 ± 0.032 | 1.8 ± 0.13 |
| AUUUUC | 1.74 ± 0.024 | 1.85 ± 0.092 |
| AUUGGG | 1.54 ± 0.16 | 1.75 ± 0.078 |
| UUUGUG | 1.72 ± 0.042 | 1.91 ± 0.05 |
| UUUGUC | 1.795 ± 0.011 | 1.9 ± 0.11 |
| AUUUCU | 1.74 ± 0.06 | 1.87 ± 0.12 |
| AUUUCG | 1.66 ± 0.028 | 1.82 ± 0.09 |
| AUUUCC | 1.79 ± 0.019 | 1.9 ± 0.092 |
| AUUUCA | 1.701 ± 0.013 | 1.85 ± 0.12 |
| GUUUGU | 1.69 ± 0.022 | 1.84 ± 0.067 |
| GUUUUA | 1.63 ± 0.032 | 1.82 ± 0.098 |
| GUUUUC | 1.69 ± 0.025 | 1.86 ± 0.09 |
| UUUUGU | 1.74 ± 0.035 | 1.87 ± 0.15 |
| UUUUGA | 1.74 ± 0.062 | 1.89 ± 0.2 |
| UUUUGG | 1.82 ± 0.05 | 1.93 ± 0.13 |

| Variant | normalized RNA/DNA level without ligand (log10) (cyclic di-GMP [1]) | normalized RNA/DNA level with ligand (log10) (cyclic di-GMP [2]) |
| --- | --- | --- |
| UUUUGC | 1.76 ± 0.045 | 1.85 ± 0.11 |
| UUUUAU | 1.7 ± 0.025 | 1.87 ± 0.095 |
| UUUUAA | 1.725 ± 0.014 | 1.86 ± 0.11 |
| UUUUAC | 1.74 ± 0.055 | 1.87 ± 0.14 |
| UUUUAG | 1.74 ± 0.022 | 1.89 ± 0.065 |
| AUUGUG | 1.605 ± 0.014 | 1.84 ± 0.11 |
| AUUGUC | 1.73 ± 0.053 | 1.85 ± 0.15 |
| AUUGUU | 1.59 ± 0.025 | 1.77 ± 0.12 |
| CUUGGU | 1.76 ± 0.031 | 1.84 ± 0.11 |
| CUUGGG | 1.74 ± 0.031 | 1.88 ± 0.13 |
| GUUGGU | 1.611 ± 0.011 | 1.77 ± 0.1 |
| GUUGGG | 1.6 ± 0.1 | 1.76 ± 0.065 |
| CUUUAU | 1.58 ± 0.047 | 1.79 ± 0.11 |
| CUUUAG | 1.73 ± 0.095 | 1.84 ± 0.19 |
| CUUUAC | 1.73 ± 0.019 | 1.84 ± 0.1 |
| GUUUAG | 1.59 ± 0.041 | 1.78 ± 0.091 |
| GUUUAC | 1.74 ± 0.029 | 1.84 ± 0.13 |
| GUUUAA | 1.54 ± 0.058 | 1.74 ± 0.086 |
| UUUUCU | 1.78 ± 0.071 | 1.9 ± 0.12 |
| UUUUCC | 1.84 ± 0.058 | 1.89 ± 0.16 |
| UUUUCA | 1.8 ± 0.025 | 1.91 ± 0.12 |
| AUUUAU | 1.74 ± 0.037 | 1.84 ± 0.073 |
| AUUUAC | 1.733 ± 0.0013 | 1.88 ± 0.1 |
| AUUUAG | 1.63 ± 0.065 | 1.77 ± 0.077 |
| CUUUCG | 1.8 ± 0.046 | 1.88 ± 0.05 |

| Variant | normalized RNA/DNA level without ligand (log10) (cyclic di-GMP [1]) | normalized RNA/DNA level with ligand (log10) (cyclic di-GMP [2]) |
| --- | --- | --- |
| GUUGUC | 1.53 ± 0.11 | 1.73 ± 0.087 |
| GUUGUG | 1.66 ± 0.09 | 1.82 ± 0.079 |
| GUUGUU | 1.67 ± 0.038 | 1.81 ± 0.098 |
| GUUGUA | 1.57 ± 0.024 | 1.77 ± 0.1 |
| CUUUUG | 1.796 ± 0.016 | 1.92 ± 0.13 |
| CUUUUU | 1.611 ± 0.013 | 1.79 ± 0.11 |
| CUUUUC | 1.73 ± 0.022 | 1.85 ± 0.12 |
| CUUUUA | 1.42 ± 0.12 | 1.66 ± 0.07 |
| UUUUUG | 1.77 ± 0.028 | 1.87 ± 0.088 |
| UUUUUC | 1.78 ± 0.052 | 1.88 ± 0.14 |
| UUUUUU | 1.77 ± 0.056 | 1.88 ± 0.097 |
| UUUUUA | 1.77 ± 0.038 | 1.92 ± 0.11 |
| UUUGGU | 1.73 ± 0.043 | 1.88 ± 0.066 |
| UUUGGG | 1.735 ± 0.0076 | 1.85 ± 0.074 |
| UUUGGC | 1.79 ± 0.033 | 1.9 ± 0.16 |
| AUUUGG | 1.56 ± 0.032 | 1.77 ± 0.088 |
| AUUUGC | 1.76 ± 0.038 | 1.87 ± 0.12 |
| AUUUGA | 1.51 ± 0.052 | 1.75 ± 0.16 |
| AUUUGU | 1.66 ± 0.017 | 1.85 ± 0.12 |
| CUUUGU | 1.78 ± 0.029 | 1.87 ± 0.049 |
| CUUUGC | 1.795 ± 0.017 | 1.88 ± 0.11 |
| CUUUGA | 1.66 ± 0.019 | 1.79 ± 0.11 |
| CUUUGG | 1.781 ± 0.0073 | 1.87 ± 0.089 |
